Series [1] concerns HeLa Kyoto. Nature of the series: solubility change mitosis vs G1/S (difference of NP-40 vs SDS log2 ratios) (log2 ratio difference); higher = more soluble in mitosis.
The test system of series [2] is HeLa Kyoto. The series can be described thus: solubility in G1/S (NP-40 vs SDS abundance) (log2 ratio); higher = more soluble. Particulars: cell cycle stage: G1/S.
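Wherever solubility change mitosis vs G1/S (difference of NP-40 vs SDS log2 ratios) is given: synchronized HeLa Kyoto cells (double thymidine block for G1/S, nocodazole release for mitosis), protein amounts in NP-40 versus SDS lysates quantified by mass spectrometry, three biological replicates.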
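Wherever solubility in G1/S (NP-40 vs SDS abundance) is given: HeLa Kyoto cells arrested at G1/S by double thymidine block, proteins quantified by TMT10plex mass spectrometry in mild NP-40 versus SDS extracts, three biological replicates.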

Turning to “MAESGGSSGGAGGGGAFGAGPGPERPNSTADKNGALKCTFSAPSHSTSLLQGLATLRAQGQLLDVVLTINREAFPAHKVVLAACSDYFRAMFTGGMREASQDVIELKGVSARGLRHIIDFAYSAEVTLDLDCVQDVLGAAVFLQMLPVVELCEEFLKAAMSVETCLNIGQMATTFSLASLRESVDAFTFRHFLQIAEEEDFLRLPLERLVFFLQSNRLQSCAEIDLFRAAVRWLQHDPARRPRASHVLCHIRFPLMQSSELVDSVQTLDIMVEDVLCRQYLLEAFNYQVLPFRQHEMQSPRTAVRSDVPSLVTFGGTPYTDSDRSVSSKVYQLPEPGARHFRELTEMEVGCSHTCVAVLDNFVYVAGGQHLQYRSGEGAVDACYRYDPHLNRWLRLQAMQESRIQFQLNVLCGMVYATGGRNRAGSLASVERYCPRRNEWGYACSLKRRTWGHAGAASGGRLYISGGYGISVEDKKALHCYDPVADQWEFKAPMSEPRVLHAMVGAGGRIYALGGRMDHVDRCFDVLAVEYYVPETDQWTSVSPMRAGQSEAGCCLLERKIYIVGGYNWRLNNVTGIVQVYNTDTDEWERDLHFPESFAGIACAPVLLPRAGTRR [KLHL26]”, the “solubility change mitosis (log2)” value with HeLa Kyoto [1] was -0.0565. Further, the “solubility in G1/S (log2)” value in the series on HeLa Kyoto [2] was -0.0553.
The like results for “MAVDVAEYHLSVIKSPPGWEVGVYAAGALALLGIAAVSLWKLWTSGSFPSPSPFPNYDYRYLQQKYGESCAEAREKRVPAWNAQRASTRGPPSRKGSLSIEDTFESISELGPLELMGRELDLAPYGTLRKSQSADSLNSISSVSNTFGQDFTLGQVEVSMEYDTASHTLNVAVMQGKDLLEREEASFESCFMRVSLLPDEQIVGISRIQRNAYSIFFDEKFSIPLDPTALEEKSLRFSVFGIDEDERNVSTGVVELKLSVLDLPLQPFSGWLYLQDQNKAADAVGEILLSLSYLPTAERLTVVVVKAKNLIWTNDKTTADPFVKVYLLQDGRKMSKKKTAVKRDDPNPVFNEAMIFSVPAIVLQDLSLRVTVAESSSDGRGDNVGHVIIGPSASGMGTTHWNQMLATLRRPVSMWHAVRRN [SYT12]” were, in that order, -0.135 and 0.0502.
Regarding “MRLRNGTFLTLLLFCLCAFLSLSWYAALSGQKGDVVDVYQREFLALRDRLHAAEQESLKRSKELNLVLDEIKRAVSERQALRDGDGNRTWGRLTEDPRLKPWNGSHRHVLHLPTVFHHLPHLLAKESSLQPAVRVGQGRTGVSVVMGIPSVRREVHSYLTDTLHSLISELSPQEKEDSVIVVLIAETDSQYTSAVTENIKALFPTEIHSGLLEVISPSPHFYPDFSRLRESFGDPKERVRWRTKQNLDYCFLMMYAQSKGIYYVQLEDDIVAKPNYLSTMKNFALQQPSEDWMILEFSQLGFIGKMFKSLDLSLIVEFILMFYRDKPIDWLLDHILWVKVCNPEKDAKHCDRQKANLRIRFKPSLFQHVGTHSSLAGKIQKLKDKDFGKQALRKEHVNPPAEVSTSLKTYQHFTLEKAYLREDFFWAFTPAAGDFIRFRFFQPLRLERFFFRSGNIEHPEDKLFNTSVEVLPFDNPQSDKEALQEGRTATLRYPRSPDGYLQIGSFYKGVAEGEVDPAFGPLEALRLSIQTDSPVWVILSEIFLKKAD [MGAT4B]”, the “solubility change mitosis (log2)” value in the series on HeLa Kyoto [1] was -0.107. The “solubility in G1/S (log2)” value with HeLa Kyoto [2] came to 0.0108.
Turning to “MKSSGLFPFLVLLALGTLAPWAVEGSGKSFKAGVCPPKKSAQCLRYKKPECQSDWQCPGKKRCCPDTCGIKCLDPVDTPNPTRRKPGKCPVTYGQCLMLNPPNFCEMDGQCKRDLKCCMGMCGKSCVSPVKA [SLPI]”, the “solubility change mitosis (log2)” value in the series with HeLa Kyoto [1] is 0.714. In addition, the “solubility in G1/S (log2)” value with HeLa Kyoto [2] was -0.403.

The values are drawn from the supplement of paper PMC5998384.
